{"source": "paper PMC5732302", "molecular_target": "taxol-stabilized microtubules (control, undigested, with E-hooks) (porcine) (UniProt P02550)", "sequence (P02550 whole entry, chain 1 of 2, the tested form may be a part)": "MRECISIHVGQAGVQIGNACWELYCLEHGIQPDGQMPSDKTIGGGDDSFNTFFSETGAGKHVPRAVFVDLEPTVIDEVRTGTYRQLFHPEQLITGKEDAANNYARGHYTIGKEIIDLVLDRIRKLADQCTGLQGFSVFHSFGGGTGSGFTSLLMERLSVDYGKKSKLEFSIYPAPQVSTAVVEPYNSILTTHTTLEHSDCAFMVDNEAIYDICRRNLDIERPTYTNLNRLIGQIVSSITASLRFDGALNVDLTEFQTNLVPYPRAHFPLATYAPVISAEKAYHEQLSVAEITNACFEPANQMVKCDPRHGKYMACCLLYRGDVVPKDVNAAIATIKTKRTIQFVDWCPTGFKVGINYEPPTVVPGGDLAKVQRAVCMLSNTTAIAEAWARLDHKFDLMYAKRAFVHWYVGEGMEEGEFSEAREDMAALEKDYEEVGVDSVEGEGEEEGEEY", "sequence (chain, as listed by the source, chain 2 of 2)": "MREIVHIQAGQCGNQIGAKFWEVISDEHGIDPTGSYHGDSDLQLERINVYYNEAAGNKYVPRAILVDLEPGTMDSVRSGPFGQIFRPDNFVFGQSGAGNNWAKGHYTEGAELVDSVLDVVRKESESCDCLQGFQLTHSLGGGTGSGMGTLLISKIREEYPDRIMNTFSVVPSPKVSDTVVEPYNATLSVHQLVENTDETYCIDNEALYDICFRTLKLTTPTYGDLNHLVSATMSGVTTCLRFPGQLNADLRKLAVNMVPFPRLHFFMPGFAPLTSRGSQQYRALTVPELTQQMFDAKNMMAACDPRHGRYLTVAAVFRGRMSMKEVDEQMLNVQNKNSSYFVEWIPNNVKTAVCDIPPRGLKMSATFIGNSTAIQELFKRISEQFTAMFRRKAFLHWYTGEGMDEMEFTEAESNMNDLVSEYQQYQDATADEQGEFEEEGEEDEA", "data": [{"substance": "GST–dynein331, artificially dimerized (via glutathione S-transferase) dynein motor domain fragment, P36022 1-4092", "values": [{"measurement": "K m(MT) of the microtubule-stimulated ATPase activity of GST–dynein331 (0–2 µM microtubules), with 200 nM She1", "result": 0.04, "unit": "µM"}, {"measurement": "K m(MT) of the microtubule-stimulated ATPase activity of GST–dynein331 (0–2 µM microtubules), without She1", "result": 0.1, "unit": "µM"}]}]}
